The record followed here is patent publication US6333167.

Assay [1] deals with LacI-SREBP2 fusion protein encoded by pCMV-ISRP (human (SREBP2 portion)).
Assay [2] concerns the target APP-LacI fusion protein encoded by pCMV-APPI (Artificial Sequence).

For the substance Site-2 protease (S2P) (enzyme), the luciferase activity in the repressor release assay (pRSVO-luc reporter, CHO-K1 cells) (fold reduction) in assay [1] was 100.

In turn, γ-secretase (enzyme) registered a luciferase activity in the repressor release assay (pRSVO-luc reporter, CHO-K1 cells) (fold reduction) in assay [2] of 35.
